According to patent US20210102933:

Columns and labels:
[1] = tested on: T1, FRET peptide substrate EDANS-A-L-E-V-L-F-Q/G-P-K-DABCYL
T1 sequence: ALEVLFXPK

Row | Substance | fluorescent signal in trypsin cleavage assay in microwells (0.5 µg/ml trypsin, 10 µg/ml FTC-casein, 1 and 18 hours) (FTC-casein) | fluorescent signal in trypsin cleavage assay in microwells (0.05, 0.5 and 5 µg/ml trypsin, 10 µg/ml FTC-casein, 1 hour) (FTC-casein) | fluorescent signal upon cleavage of the FRET peptide substrate in microwells (18 hours, 100 µg/mL peptide) [1]
1 | trypsin | the intensity of the observed fluorescent signal was dependent on the time of incubation | the intensity of the observed fluorescent signal was dependent on the concentration of trypsin in the microwells | 
2 | human rhinovirus 3C protease |  |  | The secreted enzyme successfully cleaved the substrate, resulting in a fluorescent signal
